Assay results published in paper PMC11423594, “Identification and characterization of archaeal-type FAD synthase as a novel tractable drug target from the parasitic protozoa Entamoeba histolytica” (mSphere, 2024).

Key:
[1] = substrate: Nc1ncnc2c1ncn2[C@@H]1O[C@H](COP(=O)(O)OP(=O)(O)OP(=O)(O)O)[C@@H](O)[C@H]1O; assay: purified protein; type: biochemical, Entamoeba histolytica; settings: apparent, FMN fixed 200 µM (table footnote prints mM), 5 mM MgCl2, 50 mM Tris-HCl pH 7.5, 35°C
[2] = substrate: Cc1cc2nc3c(=O)[nH]c(=O)nc-3n(C[C@H](O)[C@H](O)[C@H](O)COP(=O)(O)O)c2cc1C; assay: purified protein; type: biochemical, Entamoeba histolytica; settings: apparent, ATP fixed 100 µM (table footnote prints mM), 5 mM MgCl2, 50 mM Tris-HCl pH 7.5, 35°C

B1: EhFADS (EHI_198800) (Entamoeba histolytica HM-1:IMSS) (protein)
chain: MKGKTKQTKQILHDLKERFGEGPYEVMIAGTFDLIHPGHIHFIQEAAQFGRVIVIIARDSVVKRIKQRETVLDEKMRQSIVEGIKGVSEVVLGCENGNWYEPILKRNPHLFLMGFNQPGDLFRFEKVIHEKGGRTIFRRSNSMEKSYSLQSSSQIRRRVIEIVNNKIQ
Question: With B1 as the protein, how does the Km [1] read?
Answer: The Km was 0.0439 ± 0.0079 mM.

Question: What about the Vmax [1] of the same protein?
Answer: The Vmax was 0.0649 µmol/min/mg.

Question: What about the kcat [1] of the same protein?
Answer: Its kcat is 0.0218 ± 0.000333 s⁻¹.

Question: What about the Km [2] of the same protein?
Answer: Its Km is 0.0707 ± 0.0071 mM.

Question: What about the Vmax [2] of the same protein?
Answer: Its Vmax is 0.06 µmol/min/mg.

Question: And the kcat [2]?
Answer: The kcat was 0.0202 ± 0.002 s⁻¹.
